{"source": "patent US6100378A", "about": "“Enhancement of the pro-fertility action of a molecule involved in a sperm-egg binding” (BioPore, Inc., priority 1999, dated 2000)", "key": {"[1]": {"test_system": "frozen-thawed rooster sperm bound to an egg-membrane substrate", "assay": "BioPore Sperm-Binding Assay: percentage of sperm binding to an egg-membrane substrate", "assay_type": "cell-based", "conditions": "10 minutes at 37° C. exposure, 2 million sperm/well", "method": "All three peptides were incubated at 0, 20 and 80 ng peptide/million sperm prior to evaluation. Ration % bound calculated as: % bound with Peptide / % bound for Control; and\nWe used the BioPore® Sperm-Binding Assay (Amann et al., 1999) to compare. percentage of sperm binding to an egg-membrane substrate (similar to Barbato et al., 1998) after brief in vitro exposure to three concentrations of a prior art peptide (Hammerstedt et al., 1997), representing each of two lots of peptide SEQ ID NO: 4 (after disulfide linking the cystine residues) or three concentrations of SEQ ID NO: 1 (after disulfide linking the cystine residues). Briefly, cryopreserved rooster semen (Gill et al., 1996) from broiler males (Barbato et al., 1998) was thawed, deglycerolated (Gill et al., 1996), and adjusted to provide a concentrated suspension of sperm in an appropriate salts buffer. We used one containing: 0.600 g sodium glutamate, 0.210 g potassium glutamate, 0.100 g glucose, 0.070 g sorbitol, 0.035 g magnesium sulfate, 0.210 g potassium acetate, 0.050 g potassium citrate, 0.700 g di-potassiumphosphate, 0.160 g mono-potassium phosphate, 0.800 g di-sodium phosphate, 0.100 9 potassium hydroxide, 0.300 g N,N -bis[2-hydroxyethyl]-2-aminoethanesulfonic acid, 0.400 g N-[2-hydroxyethyl]piperazine-N'-[2-ethanesulfonic acid], and 0.400 g N-tris[hydroxymethyl]methyl-2-aminoethanesulfonic acid, dissolved in distilled water to make 100 ml (Tajima et al., 1989). Aliquots of this suspension were placed in tubes containing one of the three peptide sequences at 0, 20 or 80 ng per million sperm. After mixing and 10 minutes incubation at 37° C., the suspensions were further diluted and assayed using 2 million sperm/well in the microwell assay plates. Plates were incubated at 32° C. for 60 min, after which unbound sperm were decanted, the wells washed, and the DNA in sperm bound to the egg-membranesubstrate in the microwell plates quantified (Barbato et al., 1998). […] With SEQ ID NO: 1, however, binding for suspensions exposed to either 20 or 80 ng/million sperm was greater, namely 1.20 and 1.22 the control value."}, "[2]": {"test_system": "White Leghorn hens inseminated with frozen-thawed rooster sperm", "assay": "Fertility trial: artificial insemination of hens with frozen-thawed rooster sperm exposed to peptide", "assay_type": "in vivo, chicken", "from_the_text": "Each bar based on >425 eggs.\nTo compare fertility achieved after exposure of rooster sperm to SEQ ID NO: 4 and SEQ ID NO: 1, we used cryopreserved semen as in Example 1. To facilitate detection of benefit from peptides, we used a limited number of sperm for each artificial insemination. Pooled, deglycerolated semen (1 billion sperm/ml; at 0-4C.), in salts buffer as described in Example 1, was dispensed into tubes containing SEQ ID NO: 4 or SEQ ID NO: 1 to make nine suspensions: 0.0 (control), 0.2, 0.5, 1.0 or 2.0 μM and mixed. Artificial insemination of White Leghorn hens (40/group) was within 1 hour, and used 50 μl (50 million sperm). Eggs were collected daily, stored ≤7 d at 14C., incubated, and candled on day 7 (eggs with viable embryo were classed as fertile). Data resulting from four inseminations at 4-day intervals are shown (FIG. 2). It was concluded that both 0.2 and 0.5 μM SEQ ID NO: 4 improved fertility as did 0.2, 0.5, 1.0 and 2.0 μM SEQ ID NO: 1. […] The increase in fertility (above the control value) with the best concentration of SEQ ID NO: 1 (15.4 units at 2.0 μM) was 2.0× that with SEQ ID NO: 4 (7.8 units at 0.5 μM). Clearly, brief in vitro exposure of sperm to SEQ ID NO: 1 rather than SEQ ID NO: 4 before artificial insemination gave a greater increase in percentage of fertilized eggs over a greater range in concentration."}, "[3]": {"conditions": "20 ng peptide/million sperm, SEQ ID NO: 4 as 2 preparations (lots)"}}, "note": "Where “and” joins values, the source holds several entries; their conditions need not be identical. Identical values can stand only once. Bridge positions count the residues as written; N and C are the ends. Ends that are not written are not given here."}
{"molecule": "CQSLQEYLAEQNQRQLESNKIPEVDLARVVAPFMSNIPLLLYPQDRPRSQPQPKANEDVC (disulfide 1-60) [SEQ ID NO: 4, reference compound]", "values": [{"measurement": "binding relative to the value for the non-peptide control (ratio % bound with peptide / % bound for control)", "setting": "[1]; [3]", "result": "1.13 × and 1.17 ×"}]}
{"molecule": "Cys-Gln-Ser-Leu-Gln-Glu-Tyr-Leu-Ala-Glu-Gln-Asn-Gln-Arg-Gln-Leu-Glu-Ser-Asn-Lys-Ile-Pro-Glu-Val-Asp-Leu-Ala-Agr-Val-Val-Ala-Pro-Phe-Met-Ser-Asn-Ile-Pro-Leu-Leu-Leu-Tyr-Pro-Gln-Asp-Arg-Pro-Arg-Ser-Gln- … (peptide) CQSLQEYLAEQNQRQLESNKIPEVDLAAVVAPFMSNIPLLLYPQDRPRSQPQPKANEDVCVNHHHHHH", "values": [{"measurement": "binding relative to the value for the non-peptide control (ratio % bound with peptide / % bound for control)", "setting": "[1]; [3]", "result": 1.20, "unit": "×"}, {"measurement": "binding relative to the value for the non-peptide control (ratio % bound with peptide / % bound for control)", "setting": "[1]; 80 ng peptide/million sperm", "result": 1.22}, {"measurement": "increase in fertility (above the control value) with the best concentration", "setting": "[2]; 2.0 μM peptide, percentage of fertilized eggs, 50 million sperm, four inseminations at 4-day intervals", "result": 15.4, "unit": "units"}, {"measurement": "increase in fertility with best concentration relative to that with SEQ ID NO: 4", "setting": "[2]; SEQ ID NO: 1 at 2.0 μM vs SEQ ID NO: 4 at 0.5 μM", "result": 2.0, "unit": "×"}, {"measurement": "fold range of concentrations of benefit to fertility", "setting": "[2]; tested 0.2, 0.5, 1.0, 2.0 μM", "result": "≥ 10", "unit": "fold"}]}
